Test results reported in publication PMC3542637.

Experiments:
Experiment in all cases: purified protein
[1] = substrate: C[C@H](O)[C@H]1OC(=O)[C@@H](O)[C@@H]1O; format: biochemical, Burkholderia multivorans; conditions: pH 8.3, 2.5 mM BICINE, 0.2 M NaCl, 1% DMSO, 30 °C
[2] = substrate: C[C@H]1C[C@@H](O)[C@H](O)C(=O)O1; format: biochemical, Burkholderia multivorans; conditions: pH 7.1, 2.5 mM MOPS, 0.2 M NaCl, 1% DMSO, 30 °C
[3] = substrate: O=C1O[C@@H](CO)[C@@H](O)[C@@H]1O; format: biochemical, Burkholderia multivorans; conditions: pH 8.3, 2.5 mM BICINE, 0.2 M NaCl, 1% DMSO, 30 °C
[4] = substrate: O=C1O[C@H](CO)[C@@H](O)[C@@H]1O; format: biochemical, Burkholderia multivorans; conditions: pH 8.3, 2.5 mM BICINE, 0.2 M NaCl, 1% DMSO, 30 °C
[5] = substrate: O=C1O[C@H]([C@@H](O)CO)[C@@H](O)[C@@H]1O; format: biochemical, Burkholderia multivorans; conditions: pH 8.3, 2.5 mM BICINE, 0.2 M NaCl, 1% DMSO, 30 °C
[6] = substrate: NC(=O)c1ccc[n+]([C@@H]2O[C@H](COP(=O)(O)OP(=O)(O)OC[C@H]3O[C@@H](n4cnc5c(N)ncnc54)[C@H](O)[C@@H]3O)[C@@H](O)[C@H]2O)c1; format: biochemical, Burkholderia multivorans; conditions: 200 μM L-fucose, pH 8.0, 50 mM BICINE, 30 °C, varied: cofactor
[7] = substrate: NC(=O)c1ccc[n+]([C@@H]2O[C@H](COP(=O)(O)OP(=O)(O)OC[C@H]3O[C@@H](n4cnc5c(N)ncnc54)[C@H](OP(=O)(O)O)[C@@H]3O)[C@@H](O)[C@H]2O)c1; format: biochemical, Burkholderia multivorans; conditions: 200 μM L-fucose, pH 8.0, 50 mM BICINE, 30 °C, varied: cofactor
[8] = substrate: C[C@H](O)[C@H]1OC(=O)[C@@H](O)[C@@H]1O; format: biochemical, Burkholderia ambifaria; conditions: pH 8.3, 2.5 mM BICINE, 0.2 M NaCl, 1% DMSO, 30 °C
[9] = substrate: C[C@H]1C[C@@H](O)[C@H](O)C(=O)O1; format: biochemical, Burkholderia ambifaria; conditions: pH 7.1, 2.5 mM MOPS, 0.2 M NaCl, 1% DMSO, 30 °C
[10] = substrate: O=C1O[C@@H](CO)[C@@H](O)[C@@H]1O; format: biochemical, Burkholderia ambifaria; conditions: pH 8.3, 2.5 mM BICINE, 0.2 M NaCl, 1% DMSO, 30 °C
[11] = substrate: O=C1O[C@H](CO)[C@@H](O)[C@@H]1O; format: biochemical, Burkholderia ambifaria; conditions: pH 8.3, 2.5 mM BICINE, 0.2 M NaCl, 1% DMSO, 30 °C
[12] = substrate: O=C1O[C@H]([C@@H](O)CO)[C@@H](O)[C@@H]1O; format: biochemical, Burkholderia ambifaria; conditions: pH 8.3, 2.5 mM BICINE, 0.2 M NaCl, 1% DMSO, 30 °C

B1: BmulJ_04915 (Burkholderia multivorans ATCC 17616) (protein)
chain: MGALRIDSHQHFWRYRAADYPWIGAGMGVLARDYLPDALHPLMHAQALGASIAVQARAGRDETAFLLELACDEARIAAVVGWEDLRAPQLAERVAEWRGTKLRGFRHQLQDEADVRAFVDDADFARGVAWLQANDYVYDVLVFERQLPDVQAFCARHDAHWLVLDHAGKPALAEFDRDDTALARWRAALRELAALPHVVCKLSGLVTEADWRRGLRASDLRHIEQCLDAALDAFGPQRLMFGSDWPVCLLAASYDEVASLVERWAESRLSAAERSALWGGTAARCYALPEPADARL
- Km [1]: 1400 ± 200 µM
- kcat [1]: 140 ± 8 s⁻¹
- Km [2]: 130 ± 30 µM
- kcat [2]: 994 ± 64 s⁻¹
- Km [3]: 1500 ± 300 µM
- kcat [3]: 14 ± 1 s⁻¹
- Km [4]: 700 ± 50 µM
- kcat [4]: 59 ± 2 s⁻¹
- Km [5]: 1100 ± 200 µM
- kcat [5]: 32 ± 2 s⁻¹

B2: BmulJ_04919 (Burkholderia multivorans ATCC 17616) (protein)
chain: MDLNLQDKVVIVTGGASGIGGAISMRLAEERAIPVVFARHAPDGAFLDALAQRQPRATYLPVELQDDAQCRDAVAQTIATFGRLDGLVNNAGVNDGIGLDAGRDAFVASLERNLIHYYAMAHYCVPHLKATRGAIVNISSKTAVTGQGNTSGYCASKGAQLALTREWAVALREHGVRVNAVIPAEVMTPLYRNWIATFEDPEAKLAEIAAKVPLGRRFTTPDEIADTAVFLLSPRASHTTGEWLFVDGGYTHLDRALV
- Km [6]: 28 ± 4 µM
- Km [7]: 4.0 ± 0.5 µM
- kcat [7]: 11 ± 0.2 s⁻¹
- kcat/Km [7]: 3e+06 M⁻¹ s⁻¹

B3: Bamb_1224 (Burkholderia ambifaria AMMD) (protein)
chain: MTFRIDAHQHFWQMASRDGYWPPQTLDAIYRDFGPQDLEPLLARSGVQRTVVVQSLPTQEDTRYLLDVASRTSFVAAVVGWVDLKSTDAPADIASLARDPKFRGIRPMLQDLADDDWIDDPVLEPAIDAMLAHDLAFDALVTPRHLPALLAFARRYPRLRIVIDHAAKPPIASGRSEAWHVAMSELAAHPNVHCKLSGLWTEAGPHPDLLRVEPYVRAVCDWFGASRLIWGSDWPVSRLAGHFGDYGAWLAWCEQCCDRFLGPDARARVFGGNACHFYRIDRPSGDQHAQ
- Km [8]: 900 ± 100 µM
- kcat [8]: 89 ± 4 s⁻¹
- Km [9]: 210 ± 20 µM
- kcat [9]: 1530 ± 47 s⁻¹
- Km [10]: 1300 ± 300 µM
- kcat [10]: 6.0 ± 0.5 s⁻¹
- Km [11]: 800 ± 100 µM
- kcat [11]: 19 ± 1 s⁻¹
- Km [12]: 1300 ± 100 µM
- kcat [12]: 55 ± 2 s⁻¹
